Common to all, as to assay: high-throughput RNA pulldown from lysate on Ni-NTA beads; HRP: 50 mM Tris pH 8, 150 mM NaCl, 1 mM beta-mercaptoethanol, 50 ug/ml BSA, 3 ug/ml yeast RNA, 0.5% heparin; ITC and FP: Tris pH 8, 200 mM KCl, 5% glycerol; MST: 50 mM Tris pH 8, 200 mM NaCl, 1 mM DTT, BSA, heparin, 0.05% Tween 20
Settings in all cases: tags: N-terminal His-eGFP

Data set [1] concerns the target T1, GFP-9S library array, motif 4 ND N98Q;D124P (synthetic construct, N98Q;D124P).
T1 chain: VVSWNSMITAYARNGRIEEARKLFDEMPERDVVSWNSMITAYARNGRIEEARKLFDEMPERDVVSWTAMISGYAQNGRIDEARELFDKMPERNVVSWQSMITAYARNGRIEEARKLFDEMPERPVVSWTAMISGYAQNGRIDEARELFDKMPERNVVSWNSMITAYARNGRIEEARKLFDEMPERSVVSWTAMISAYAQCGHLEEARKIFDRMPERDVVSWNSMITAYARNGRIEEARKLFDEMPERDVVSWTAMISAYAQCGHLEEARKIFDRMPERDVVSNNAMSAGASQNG

In data set [2] the target is T2, GFP-9S library array, motif 4 ND N98F;D124M (synthetic construct, N98F;D124M).
T2 chain: T1 chain with Q98F, P124M

Data set [3] addresses T3, GFP-9S library array, motif 4 ND N98A;D124P (synthetic construct, N98A;D124P).
T3 chain: T1 chain with Q98A

Data set [4] deals with T4, GFP-9S library array, motif 4 ND N98Q;D124R (synthetic construct, N98Q;D124R).
T4 chain: T1 chain with P124R

The target in data set [5] is T5, GFP-9S library array, motif 4 ND N98G (synthetic construct, N98G).
T5 chain: T1 chain with Q98G, P124D

Residue numbers refer to the chain shown, from its start.

The record followed here is publication PMC8809517, “Cofactor-independent RNA editing by a synthetic S-type PPR protein”.

In general, Kd refers to the concentration at which binding is half-saturated. Lower therefore signals a tighter complex.

B1: Cy5-rpoA (ssRNA)
RNA: AUUACACGUGA
As for B1, the Kd turned out to be 135 nM in data set [1] (label: 5' Cy5); 76.7 nM in data set [2] (label: 5' Cy5); 138 nM in data set [3] (label: 5' Cy5); 95.2 nM in data set [4] (label: 5' Cy5); 402 nM in data set [5] (label: 5' Cy5).

B2: IR-rpoA-A (ssRNA)
RNA: AUUAAACGUGA
As for B2, the Kd was determined as 259 nM in data set [1] (label: 5' IRDye 800CW); 230 nM in data set [2] (label: 5' IRDye 800CW); 218 nM in data set [3] (label: 5' IRDye 800CW); 201 nM in data set [4] (label: 5' IRDye 800CW); 495 nM in data set [5] (label: 5' IRDye 800CW).

B3: Cy5-rpoA-G (ssRNA)
RNA: AUUAGACGUGA
Turning to B3, the Kd came out at 138 nM in data set [1] (label: 5' Cy5); 69.1 nM in data set [2] (label: 5' Cy5); 115 nM in data set [3] (label: 5' Cy5); 77.7 nM in data set [4] (label: 5' Cy5); 32.5 nM in data set [5] (label: 5' Cy5).

B4: IR-rpoA-U (ssRNA)
RNA: AUUAUACGUGA
With B4, the Kd in data set [1] (label: 5' IRDye 800CW) amounted to 219 nM; in data set [2] (label: 5' IRDye 800CW) it was 194 nM; in data set [3] (label: 5' IRDye 800CW), 320 nM; in data set [4] (label: 5' IRDye 800CW), 138 nM; in data set [5] (label: 5' IRDye 800CW), 408 nM.
